Source: PMC2868043, “The Yeast Cell Fusion Protein Prm1p Requires Covalent Dimerization to Promote Membrane Fusion” (PLoS ONE, 2010)

Columns and labels:
[1] = molecular target: the molecule itself; experiment: non-reducing SDS-PAGE and Western blot; whole cell lysate, reducing agent omitted from the sample buffer; cells induced with 10 µg/ml α-factor for 90 min (GFP alleles, anti-GFP blot) or with galactose (HA-PRM1, anti-HA blot); shows only SDS-resistant covalent dimers
[2] = molecular target: the molecule itself; experiment: non-reducing SDS-PAGE + affinity purification with mass spectrometry; Prm1p purified from mating cells under native conditions by α-myc immunoprecipitation, eluted with 2% SDS, 10% bis-Tris gel, colloidal blue staining; unreduced sample analysed by mass spectrometry (data not shown)

Row | Protein | stoichiometry N [1] | stoichiometry N [2]
1 | Prm1-GFP (natural protein, S. cerevisiae, UniProt P53835 1-661, looked up, Prm1p, mating-specific multipass membrane protein of S. cerevisiae; monomer 73 kD; Glycosylated (sugar modifications); Forms a disulfide-linked homodimer; also called Prm1p; source: S. cerevisiae (W303 derivatives), PRM1 promoter, induced with α-factor or by mating; in whole cell lysate or Triton X-100 solubilised membranes; not shown: GFP, C-terminal, kept) MSGFKCYLQLGDRLSQIWLNKYTLVLLLAMLKLLFFSKSIQHAIEVSETYILSNCYSIDSLYSKMTDNTPHYLGIMGNYLIEKGMEETVKATLETLSLIVYASEGLVNFAIDLYLGTYACLIVSAVDGTVDVATNITEKLISLVNDTVSSVANELDTGLNDISKIINKVIKAASKVENFFTGDDDDSNMTSSIKSVNLTISALHNLYIPSSINDKLEELSAKTPDFAQVKNTTKNLISVPFNEVRKNIKAVNASNIIGDTSVLYVPPVSLDNSTGICSSNQSEILAFYSILGHVLKIATVVCITVLICFAVGAMAPVAWNEIKLWRRLCGMRDHYMLSRQDSYTSFSSENTHELKDPFRDPPIQNGQYDVIASYQQCFQTWNTRIAGWMTNLVTFGKSPENIDPKTKQKIEWVVAYMTSERALCVLGIGLLGILVCICQFVMIALLKHKISHSLTSNDGDGVQNLLKSSTAVDIENQMSLWSVQTNKYINTTETNINQEVFGWINTTTLSVNNTVATMISDIDTTLADVFNGTLLYNPMKTVVGCAIENKLYTIEKAMTWIHDKAQLHIPRINGTQIKQALAKQTDNSTIPTASSTSAATENLLENLVNDMREGLLKILRAYHRITLGELTVALVILAVWLVQLPIALVILRLRLRKATFD | 2 | –
2 | HA-Prm1p (natural protein, S. cerevisiae, UniProt P53835 1-661, looked up, Prm1p, S. cerevisiae, under control of the GAL1 promoter; also called GALPRO-HA-PRM1; source: S. cerevisiae (W303 derivative), genomic GAL1 promoter fusion, galactose induced; in whole cell lysate) MSGFKCYLQLGDRLSQIWLNKYTLVLLLAMLKLLFFSKSIQHAIEVSETYILSNCYSIDSLYSKMTDNTPHYLGIMGNYLIEKGMEETVKATLETLSLIVYASEGLVNFAIDLYLGTYACLIVSAVDGTVDVATNITEKLISLVNDTVSSVANELDTGLNDISKIINKVIKAASKVENFFTGDDDDSNMTSSIKSVNLTISALHNLYIPSSINDKLEELSAKTPDFAQVKNTTKNLISVPFNEVRKNIKAVNASNIIGDTSVLYVPPVSLDNSTGICSSNQSEILAFYSILGHVLKIATVVCITVLICFAVGAMAPVAWNEIKLWRRLCGMRDHYMLSRQDSYTSFSSENTHELKDPFRDPPIQNGQYDVIASYQQCFQTWNTRIAGWMTNLVTFGKSPENIDPKTKQKIEWVVAYMTSERALCVLGIGLLGILVCICQFVMIALLKHKISHSLTSNDGDGVQNLLKSSTAVDIENQMSLWSVQTNKYINTTETNINQEVFGWINTTTLSVNNTVATMISDIDTTLADVFNGTLLYNPMKTVVGCAIENKLYTIEKAMTWIHDKAQLHIPRINGTQIKQALAKQTDNSTIPTASSTSAATENLLENLVNDMREGLLKILRAYHRITLGELTVALVILAVWLVQLPIALVILRLRLRKATFD | 2 | –
3 | Prm1-myc (natural protein, S. cerevisiae, UniProt P53835 1-661, looked up, Prm1p, mating-specific multipass membrane protein of S. cerevisiae; Made by replacing the GFP of the PRM1-GFP plasmid with the tag of a PRM1-myc strain, so the tag is probably C-terminal; also called Prm1p; source: S. cerevisiae (W303 derivatives), PRM1 promoter, mating cells; in Triton X-100 solubilised membranes, or purified by α-myc immunoprecipitation) MSGFKCYLQLGDRLSQIWLNKYTLVLLLAMLKLLFFSKSIQHAIEVSETYILSNCYSIDSLYSKMTDNTPHYLGIMGNYLIEKGMEETVKATLETLSLIVYASEGLVNFAIDLYLGTYACLIVSAVDGTVDVATNITEKLISLVNDTVSSVANELDTGLNDISKIINKVIKAASKVENFFTGDDDDSNMTSSIKSVNLTISALHNLYIPSSINDKLEELSAKTPDFAQVKNTTKNLISVPFNEVRKNIKAVNASNIIGDTSVLYVPPVSLDNSTGICSSNQSEILAFYSILGHVLKIATVVCITVLICFAVGAMAPVAWNEIKLWRRLCGMRDHYMLSRQDSYTSFSSENTHELKDPFRDPPIQNGQYDVIASYQQCFQTWNTRIAGWMTNLVTFGKSPENIDPKTKQKIEWVVAYMTSERALCVLGIGLLGILVCICQFVMIALLKHKISHSLTSNDGDGVQNLLKSSTAVDIENQMSLWSVQTNKYINTTETNINQEVFGWINTTTLSVNNTVATMISDIDTTLADVFNGTLLYNPMKTVVGCAIENKLYTIEKAMTWIHDKAQLHIPRINGTQIKQALAKQTDNSTIPTASSTSAATENLLENLVNDMREGLLKILRAYHRITLGELTVALVILAVWLVQLPIALVILRLRLRKATFD | – | 2
